# Reference: the supplement of paper PMC11246515
# ± gives the standard deviation of the averaged measurements.
# Assay: total protein half-life in vivo (active degradation + dilution); higher = more stable protein
# [1] = E. coli NCM3722 delta-clpP delta-lon delta-hslV, growth: N-lim chemostat, doubling time 6 h
# [2] = E. coli NCM3722 delta-clpP, growth: N-lim chemostat, doubling time 6 h
# [3] = E. coli NCM3722 delta-hslV, growth: N-lim chemostat, doubling time 6 h
# [4] = E. coli NCM3722 delta-lon, growth: N-lim chemostat, doubling time 6 h
# [5] = E. coli NCM3722 delta-smpB, growth: N-lim chemostat, doubling time 6 h
# [6] = wild type E. coli NCM3722, growth: C-lim chemostat, doubling time 3 h
# [7] = wild type E. coli NCM3722, growth: C-lim chemostat, doubling time 6 h
# [8] = wild type E. coli NCM3722, growth: C-lim chemostat, doubling time 12 h
# [9] = wild type E. coli NCM3722, growth: N-lim chemostat, doubling time 6 h
# [10] = wild type E. coli NCM3722, growth: N-lim chemostat, doubling time 12 h
# [11] = wild type E. coli NCM3722, growth: P-lim chemostat, doubling time 6 h
# [12] = wild type E. coli NCM3722, growth: P-lim chemostat, doubling time 12 h
Sequence,total protein half-life in vivo [1] [h],total protein half-life in vivo [2] [h],total protein half-life in vivo [3] [h],total protein half-life in vivo [4] [h],total protein half-life in vivo [5] [h],total protein half-life in vivo [6] [h],total protein half-life in vivo [7] [h],total protein half-life in vivo [8] [h],total protein half-life in vivo [9] [h],total protein half-life in vivo [10] [h],total protein half-life in vivo [11] [h],total protein half-life in vivo [12] [h]
MNTVRSEKDSMGAIDVPADKLWGAQTQRSLEHFRISTEKMPTSLIHALALTKRAAAKVNEDLGLLSEEKASAIRQAADEVLAGQHDDEFPLAIWQTGSGTQSNMNMNEVLANRASELLGGVRGMERKVHPNDDVNKSQSSNDVFPTAMHVAALLALRKQLIPQLKTLTQTLNEKSRAFADIVKIGRTHLQDATPLTLGQEISGWVAMLEHNLKHIEYSLPHVAELALGGTAVGTGLNTHPEYARRVADELAVITCAPFVTAPNKFEALATCDALVQAHGALKGLAASLMKIANDVRWLASGPRCGIGEISIPENEPGSSIMPGKVNPTQCEALTMLCCQVMGNDVAINMGGASGNFELNVFRPMVIHNFLQSVRLLADGMESFNKHCAVGIEPNRERINQLLNESLMLVTALNTHIGYDKAAEIAKKAHKEGLTLKAAALALGYLSEAEFDSWVRPEQMVGSMKAGR,4.65 ± 0.1,4.64 ± 0.49,4.42 ± 0.081,4.69 ± 0.13,4.11 ± 0.091,3.18 ± 0.23,5.9 ± 0.12,9.94 ± 0.14,4.59 ± 0.14,7.19 ± 0.16,5.82 ± 0.21,12.6 ± 0.33
MNVFNPAQFRAQFPALQDAGVYLDSAATALKPEAVVEATQQFYSLSAGNVHRSQFAEAQRLTARYEAAREKVAQLLNAPDDKTIVWTRGTTESINMVAQCYARPRLQPGDEIIVSVAEHHANLVPWLMVAQQTGAKVVKLPLNAQRLPDVDLLPELITPRSRILALGQMSNVTGGCPDLARAITFAHSAGMVVMVDGAQGAVHFPADVQQLDIDFYAFSGHKLYGPTGIGVLYGKSELLEAMSPWLGGGKMVHEVSFDGFTTQSAPWKLEAGTPNVAGVIGLSAALEWLADYDINQAESWSRSLATLAEDALAKRPGFRSFRCQDSSLLAFDFAGVHHSDMVTLLAEYGIALRAGQHCAQPLLAELGVTGTLRASFAPYNTKSDVDALVNAVDRALELLVD,4.06 ± 0.23,3.13 ± 0.13,3.71 ± 0.079,4.38 ± 0.57,3.52 ± 0.088,2.97 ± 0.082,5.59 ± 0.13,10.8 ± 2.4,4.11 ± 0.22,6.8 ± 0.74,5.86 ± 0.26,13.3 ± 3.4
MNVFSQTQRYKALFWLSLFHLLVITSSNYLVQLPVSILGFHTTWGAFSFPFIFLATDLTVRIFGAPLARRIIFAVMIPALLISYVISSLFYMGSWQGFGALAHFNLFVARIATASFMAYALGQILDVHVFNRLRQSRRWWLAPTASTLFGNVSDTLAFFFIAFWRSPDAFMAEHWMEIALVDYCFKVLISIVFFLPMYGVLLNMLLKRLADKSEINALQAS,,,,,,2.3,,,,,,
MNVIRTEIEDVLILEPRVFGDDRGFFYESFNQSAFEHILGYPVSFVQDNHSRSSKNVLRGLHFQRGEYAQDKLVRCTHGAVFDVAVDIRPNSVSFGKWVGVLLSADNKQQLWIPKGFAHGFLVLSDIAEFQYKTTNYYHPESDCGICWNDERIAIDWPQTSGLILSPKDERLFTLDELIRLKLIA,6.28,,,3.33 ± 0.14,,,,,,3.7,,
MNVLRSGIVTMLLLAAFSVQAACTWPAWEQFKKDYISQEGRVIDPSDARKITTSEGQSYGMFSALAANDRAAFDNILDWTQNNLAQGSLKERLPAWLWGKKENSKWEVLDSNSASDGDVWMAWSLLEAGRLWKEQRYTDIGSALLKRIAREEVVTVPGLGSMLLPGKVGFAEDNSWRFNPSYLPPTLAQYFTRFGAPWTTLRETNQRLLLETAPKGFSPDWVRYEKDKGWQLKAEKTLISSYDAIRVYMWVGMMPDSDPQKARMLNRFKPMATFTEKNGYPPEKVDVATGKAQGKGPVGFSAAMLPFLQNRDAQAVQRQRVADNFPGSDAYYNYVLTLFGQGWDQHRFRFSTKGELLPDWGQECANSH,5.88 ± 0.14,6.89 ± 0.16,6.78 ± 0.68,6.5 ± 0.64,5.684 ± 0.013,3.19 ± 0.12,6.41 ± 0.42,,6.48 ± 1.2,14 ± 0.56,5.86 ± 0.12,12.7 ± 0.61
MNYEIKQEEKRTVAGFHLVGPWEQTVKKGFEQLMMWVDSKNIVPKEWVAVYYDNPDETPAEKLRCDTVVTVPGYFTLPENSEGVILTEITGGQYAVAVARVVGDDFAKPWYQFFNSLLQDSAYEMLPKPCFEVYLNNGAEDGYWDIEMYVAVQPKHH,4.8 ± 0.93,2.75,3.39 ± 0.23,,4.26 ± 1.8,2.22 ± 0.21,3.9 ± 0.048,5.57 ± 0.35,3.16,4.89 ± 0.49,2.6,6.49 ± 0.56
MNYHQYYPVDIVNGPGTRCTLFVSGCVHECPGCYNKSTWRVNSGQPFTKAMEDQIINDLNDTRIKRQGISLSGGDPLHPQNVPDILKLVQRIRAECPGKDIWVWTGYKLDELNAAQMQVVDLINVLVDGKFVQDLKDPSLIWRGSSNQVVHHLR [P0A9N8],,1.08,,,,,,2.03,,,,
MNYQNDDLRIKEIKELLPPVALLEKFPATENAANTVAHARKAIHKILKGNDDRLLVVIGPCSIHDPVAAKEYATRLLALREELKDELEIVMRVYFEKPRTTVGWKGLINDPHMDNSFQINDGLRIARKLLLDINDSGLPAAGEFLDMITPQYLADLMSWGAIGARTTESQVHRELASGLSCPVGFKNGTDGTIKVAIDAINAAGAPHCFLSVTKWGHSAIVNTSGNGDCHIILRGGKEPNYSAKHVAEVKEGLNKAGLPAQVMIDFSHANSSKQFKKQMDVCADVCQQIAGGEKAIIGVMVESHLVEGNQSLESGEPLAYGKSITDACIGWEDTDALLRQLANAVKARRG [P0AB91],3.65 ± 0.43,2.92 ± 0.049,2.76 ± 0.068,3.62 ± 0.64,3.01 ± 0.16,3.18 ± 0.28,5.81 ± 0.16,10.3 ± 0.25,3.02 ± 0.048,3.98 ± 0.2,5.41 ± 0.039,10.3 ± 0.3
MPACELRPATQYDTDAVYALICELKQAEFDHHAFRVGFNANLRDPNMRYHLALLDGEVVGMIGLHLQFHLHHVNWIGEIQELVVMPQARGLNVGSKLLAWAEEEARQAGAEMTELSTNVKRHDAHRFYLREGYEQSHFRFTKAL,4.67 ± 0.61,2.53 ± 0.34,1.8 ± 0.17,2.76 ± 0.12,1.58 ± 0.037,1.61 ± 0.22,2.49 ± 0.34,2.45,1.93 ± 0.3,2.54 ± 0.055,3.65 ± 0.24,6.57 ± 0.13
MPAPVVLILAAGRGECFLASGGNTHKCIGWRQSPEVAPYRWPFEENGRTFDLAIEPQITTNDLRLMLRLALAGGGITIATQETFRPYIESGKLVSLLDDFLPQFPGFYLYFPQRRNIAPKLRALIDYVKEWRQQLA,4.63,,,,,,,,,,,
